Data on one protein can be found in paper PMC5888981, “Scopoletin 8-hydroxylase: a novel enzyme involved in coumarin biosynthesis and iron-deficiency responses in Arabidopsis” (Journal of Experimental Botany, 2018).

Substrate in this data set: COc1cc2ccc(=O)oc2cc1O
The experiment in a line: purified protein. The format is biochemical, Arabidopsis thaliana. Particulars: Fe2+, 2-oxoglutarate and ascorbate, pH 8.0 (methods b28 say optimal pH 7.0), 31.5 °C, 10 min, 0.1 M potassium phosphate.

B1: S8H (scopoletin 8-hydroxylase; At3g12900 oxidoreductase) (Arabidopsis thaliana) (protein)
chain: GINFEDQTTLFNFVVREGNGVKGMIDSGLSSVPRPFVQPLSERIPTQKALTCEATQPIDLSNLDGPQHKEVAKQIVEAAETLGFFQVVNHGVSVELLELLKSSAHEFFAQAPEEKSMYLKEVSPSKLVKYGTSFVPDKEKAIEWKDYVSMLYTNDSEALQHWPQPCREVALEFLNSSMEMVKNVVNILMENVGVTLEEEKMNGLMGTKMVNMNYYPTCPSPELTVGVGRHSDMGMLTVLLQDGIGGLYVKLDNGEWAEIPPVHGALVINIGDTLQILSNGKYKSAEHRVRTTNIGSRVSVPIFTAPNPSQKVGPLPEVVKRDGVARYKEFLFQDYMNNFFGQPHDGKKSLDFARAE
notes: S8H ORF in pET28a+ (BamHI/XhoI), 6xHis-tagged, no tag removal described; E. coli Rosetta 2; TALON purified
In the case of B1, the Km amounted to 11 ± 2 µM and the kcat is on record as 1.73 ± 0.09 s^–1.

A word on the Km: it is the substrate concentration at which the rate is half of its maximum.
